# Measured values from patent publication US20240252589A1, “AGENT FOR ENHANCING PHAGOCYTOSIS ABILITY OF NEUTROPHILS” (priority 2018, published 2024).
# Tests used:
# [1] = test system: Human neutrophils; assay: Phagocytosis ability of neutrophils against Escherichia coli (pHrodo indicator, InCell Analyzer); type: cell-based
# Protocol: (§1) Phagocytosis ability of neutrophils against Escherichia coli (a gram-negative bacterium) or Staphylococcus aureus (a gram-positive bacterium) was measured with a pHrodo™ indicator. Phagosomes within neutrophils can be fluorescence-stained with a pHrodo™ staining reagent to measure their phagocytosis ability. Human neutrophils were separated from the whole blood using a hemocyte separation solution Polymorphprep™, and the cell solution was washed with PBS to perform suspension. The numbers of cells were adjusted, and the cells were stained with Hoechst33342 (nucleus staining: blue) and calcein-AM (cytoplasm: green) by incubation under CO2 at 37° C. for 15 min. Neutrophil solutions were resuspended in HBSS, and the numbers of cells were adjusted (2×10^6 cells/mL).
# (§2) To the neutrophil liquids at the cell concentration, hHRG solutions were added, and the mixtures were dispensed to a 96-well plate, allowing incubation under CO2 at 37° C. for 30 min. Then, Escherichia coli (pHrodo™ Escherichia coli) or Staphylococcus aureus (pHrodo™ Staphylococcus aureus) was added to the 96-well plate, and incubated under CO2 at 37° C. In this Example, the final concentration of the cell liquids was 2×10^4 cells/well (2×10^5 cells/mL), the final concentrations of HRG were from 0.01 μM to 3.0 μM, and the final concentration of pHrodo™ Escherichia coli or pHrodo™ Staphylococcus aureus was 25 μg/well (250 μg/mL). The incubation of Escherichia coli was for 60 min, and that of Staphylococcus aureus was for 120 min.
# (§3) Through use of InCell Analyzer (GE Healthcare), the amounts of red-colored pHrodo by neutrophils' uptake were analyzed by image analysis and quantification to observe the phagocytosis ability of neutrophils.
# To the neutrophil liquids at the cell concentration (2×10^6 cells/mL), each solution of hHRG, rHRG, or HRG-Fc was added to observe the phagocytosis ability of neutrophils against Escherichia coli or Staphylococcus aureus by the same procedure as Experimental Example 1 (HRG final concentrations of from 0.1 μM to 3.0 μM). […] The amounts of red-colored pHrodo by neutrophils' uptake can be imaged and quantified to observe the phagocytosis ability of neutrophils.
# [2] = test system: Human neutrophils; assay: Phagocytosis ability of neutrophils against Staphylococcus aureus (pHrodo indicator, InCell Analyzer); type: cell-based
# Protocol: as §1, §2
# as §3, with “neutrophils. The analysis results of phagocytosis ability of neutrophils against Escherichia coli and Staphylococcus aureus are shown in FIG. 4A and FIG. 4B.” for “neutrophils.”
# To the neutrophil liquids at the cell concentration (2×10^6 cells/mL), each solution of hHRG, rHRG, or HRG-Fc was added to observe the phagocytosis ability of neutrophils against Escherichia coli or Staphylococcus aureus by the same procedure as Experimental Example 1 (HRG final concentrations of from 0.1 μM to 3.0 μM). As an observation experiment, phagocytosis ability of neutrophils against Escherichia coli or Staphylococcus aureus was observed, when each of different anti-HRG antibodies or control antibodies was added. The amounts of red-colored pHrodo by neutrophils' uptake can be imaged and quantified to observe the phagocytosis ability of neutrophils. […]
# [3] = test system: neutrophils; assay: Opsonin effect 1: phagocytosis by neutrophils of pHrodo Red Zymosan treated with serum containing HRG or no HRG; type: cell-based, Human; conditions: Zymosan 500 μg/mL; HRG 1.0 μM; 120 min; compared with serum containing no HRG
# Protocol: In this Experimental Example, the effect of HRG on opsonization (Op) was observed using serum containing HRG or no HRG. Healthy human serum was used for opsonization (Op). In this Experimental Example, the “serum containing HRG” refers to untreated, healthy human serum. In this Experimental Example, the “serum containing no HRG” refers to human serum in which a Ni-NTA agarose gel is added to human serum to adsorb HRG in the serum, and then the Ni-NTA agarose gel is removed by centrifugation.
# Zymosan (pHrodo™ Red Zymosan, manufactured by Thermo Fisher Scientific Inc.) was blended with serum containing HRG or no HRG at 4° C., and then the mixture was stirred well by ultrasonic homogenization. After the stirring, centrifugation was performed at 4° C. and 15,000 rpm for 15 min. The supernatant was discarded and the sediment was suspended in HBSS. This washing procedure was repeated twice, and then Zymosan was suspended in HBSS. The concentration of Zymosan at this time of point was 1.0 mg/mL.
# To the neutrophil liquids, hHRG solutions were added, and the mixtures were dispensed to a 96-well plate, allowing incubation under CO2 at 37° C. for 30 min. […] Through use of InCell Analyzer (GE Healthcare), the amounts of red-colored pHrodo by neutrophils' uptake were analyzed by image analysis and quantification to observe the phagocytosis ability of neutrophils.
# [4] = test system: neutrophils; assay: Opsonin effect 2: phagocytosis by neutrophils of pretreated Escherichia coli; type: cell-based, Human
# Protocol: (§4) Escherichia coli (pHrodo™ Escherichia coli) or Staphylococcus aureus (pHrdo™ Staphylococcus aureus) was pre-incubated with human serum albumin (HSA, 1.0 μM), hHRG (1.0 μM), or 5-fold-diluted human serum (1/5 Serum) at 37° C. for 15 min, and then Escherichia coli or Staphylococcus aureus was washed twice with HBSS. […] A hHRG solution was added to a neutrophil solution. The mixture was dispensed to a 96-well plate and incubated under CO2 at 37° C. for 30 min. Then, the Escherichia coli or Staphylococcus aureus pretreated with the above-mentioned HSA or HRG solution, or 5-fold-diluted human serum was added, and the resulting mixture was dispensed to the 96-well plate and incubated under CO2 at 37° C. for 120 min. The final concentration of the cell liquid at this time was 2×10^4 cells/well (2×10^5 cells/mL), the final concentration of HSA or HRG was […], and the final concentration of […] was 25 μg/well (250 μg/mL). Through use of InCell Analyzer (GE Healthcare), the amounts of red-colored pHrodo by neutrophils' uptake were analyzed by image analysis and quantification to observe the phagocytosis ability of neutrophils.
# [5] = test system: neutrophils; assay: Opsonin effect 2: phagocytosis by neutrophils of pretreated Staphylococcus aureus; type: cell-based, Human
# Protocol: as §4
# [6] = Experimental Example 2, final concentrations 0.1 μM to 3.0 μM
# [7] = Experimental Example 3, 1.0 μM hHRG, antibodies 10 μM
# [8] = bacteria pre-incubated 37° C. 15 min with hHRG 1.0 μM or 5-fold-diluted human serum
# [9] = compared to un-opsonized (UnOp) bacterial cells, HRG added to neutrophils
Molecule,"enhancement of phagocytosis of neutrophils against Escherichia coli [1, 6]","enhancement of phagocytosis of neutrophils against Staphylococcus aureus [2, 6]","HRG concentration at which phagocytosis ability reached a plateau ([1]; Experimental Example 1, Escherichia coli) [M]","phagocytosis ability of neutrophils against Escherichia coli ([1]; Experimental Example 1, hHRG 0.01 μM to 3.0 μM, 30 min preincubation, 60 min with pHrodo E. coli)","phagocytosis ability of neutrophils against Escherichia coli [1, 7]","HRG concentration at which phagocytosis ability reached a plateau ([2]; Experimental Example 1, Staphylococcus aureus) [µM]","phagocytosis ability of neutrophils against Staphylococcus aureus ([2]; Experimental Example 1, hHRG 0.01 μM to 3.0 μM, 30 min preincubation, 120 min with pHrodo S. aureus)","phagocytosis ability of neutrophils against Staphylococcus aureus [2, 7]",amount of phagocytosis by neutrophils of serum-treated Zymosan (opsonin effect) [3],"opsonin (Op)-enhancing effect of pretreatment of Escherichia coli [4, 8]","phagocytosis ability of neutrophils of Escherichia coli opsonized with human sera on addition of HRG [4, 9]","opsonin (Op)-enhancing effect of pretreatment of Staphylococcus aureus [5, 8]","phagocytosis ability of neutrophils of Staphylococcus aureus opsonized with human sera on addition of HRG [5, 9]"
"rHRG: Recombinant human HRG expressed in CHO cells, purified on Ni-NTA agarose (protein, misc_feature 1..1596 EcoR1-HRG-Xho1, Recombinant human HRG expressed in CHO cells, purified on Ni-NTA agarose) EFRMGKALIAALLLITLQYSCAVSPTDCSAVEPEAEKALDLINKRRRDGYLFQLLRIADAHLDRVENTTVYYLVLDVQESDCSVLSRKYWNDCEPPDSRRPSEIVIGQCKVIATRHSHESQDLRVIDFNCTTSSVSSALANTKDSPVLIDFFEDTERYRKQANKALEKYKEENDDFASFRVDRIERVARVRGGEGTGYFVDFSVRNCPRHHFPRHPNVFGFCRADLFYDVEALDLESPKNLVINCEVFDPQEHENINGVPPHLGHPFHWGGHERSSTTKPPFKPHGSRDHHHPHKPHEHGPPPPPDERDHSHGPPLPQGPPPLLPMSCSSCQHATFGTNGAQRHSHNNNSSDLHPHKHHSHEQHPHGHHPHAHHPHEHDTHRQHPHGHHPHGHHPHGHHPHGHHPHGHHPHCHDFQDYGPCDPPPHNQGHCCHGHGPPPGHLRRRGPGKGPRPFHCRQIGSVYRLPPLRKGEVLPLPEANFPSFPLPHHKHPLKPDNQPFPQSVSESCPGKFKSGFPQVSMFFTHTFPKPLE",to the same extent as hHRG,to the same extent as hHRG,,,,,,,,,,,
"HRG: Human plasma-derived histidine-rich glycoprotein, about 80 kDa, purified by Ni-NTA affinity and Mono Q chromatography (protein) VSPTDCSAVEPEAEKALDLINKRRRDGYLFQLLRIADAHLDRVENTTVYYLVLDVQESDCSVLSRKYWNDCEPPDSRRPSEIVIGQCKVIATRHSHESQDLRVIDFNCTTSSVSSALANTKDSPVLIDFFEDTERYRKQANKALEKYKEENDDFASFRVDRIERVARVRGGEGTGYFVDFSVRNCPRHHFPRHPNVFGFCRADLFYDVEALDLESPKNLVINCEVFDPQEHENINGVPPHLGHPFHWGGHERSSTTKPPFKPHGSRDHHHPHKPHEHGPPPPPDERDHSHGPPLPQGPPPLLPMSCSSCQHATFGTNGAQRHSHNNNSSDLHPHKHHSHEQHPHGHHPHAHHPHEHDTHRQHPHGHHPHGHHPHGHHPHGHHPHGHHPHCHDFQDYGPCDPPPHNQGHCCHGHGPPPGHLRRRGPGKGPRPFHCRQIGSVYRLPPLRKGEVLPLPEANFPSFPLPHHKHPLKPDNQPFPQSVSESCPGKFKSGFPQVSMFFTHTFPK",,,0.3,enhanced,enhanced,0.3,enhanced,enhanced,opsonin (Op)-enhancing effect,did not exhibit an opsonin (Op)-enhancing effect,highly enhanced,did not exhibit an opsonin (Op)-enhancing effect,highly enhanced
